Experiment in all cases: SPR (Biacore)
(SPR reads the build-up and loss of mass on a sensor chip optically.)

The target in experiment [1] is T1, human C5 (purified human complement C5, Complement Technology #A120; also C5 in normal human serum) (human, UniProt P01031 19-673; P01031 678-1676).
The target in experiment [2] is T1, human C5 (purified human complement C5, …). The source holds these as a separate data set.
For experiment [3] the target is unchanged. The source holds these as a separate data set.
Experiment [4] has the same target. The source holds these as a separate data set.
The target is the same in experiment [5]. This is another data set of the same source.

Like-named read-outs stand apart in the source and are kept apart here.

T1 sequence (P01031 19-673, chain 1 of 2): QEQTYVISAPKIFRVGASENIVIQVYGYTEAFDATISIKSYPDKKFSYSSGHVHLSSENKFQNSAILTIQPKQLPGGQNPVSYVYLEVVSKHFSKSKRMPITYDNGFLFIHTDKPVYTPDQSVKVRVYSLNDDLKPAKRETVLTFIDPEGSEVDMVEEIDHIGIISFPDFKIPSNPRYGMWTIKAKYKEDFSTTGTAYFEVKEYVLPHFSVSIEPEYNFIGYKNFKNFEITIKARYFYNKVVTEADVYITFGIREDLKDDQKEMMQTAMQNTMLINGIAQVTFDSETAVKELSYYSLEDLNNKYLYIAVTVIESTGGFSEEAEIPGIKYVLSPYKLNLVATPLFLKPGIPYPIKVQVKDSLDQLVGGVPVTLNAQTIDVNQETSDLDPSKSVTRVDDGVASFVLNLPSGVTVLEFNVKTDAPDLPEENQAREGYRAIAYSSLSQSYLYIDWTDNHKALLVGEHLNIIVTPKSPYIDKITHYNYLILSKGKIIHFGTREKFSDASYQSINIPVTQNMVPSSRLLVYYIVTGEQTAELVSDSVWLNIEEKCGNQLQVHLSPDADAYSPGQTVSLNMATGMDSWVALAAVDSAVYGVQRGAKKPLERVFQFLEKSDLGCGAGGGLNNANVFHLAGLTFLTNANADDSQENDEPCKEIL
T1 sequence (P01031 678-1676, chain 2 of 2): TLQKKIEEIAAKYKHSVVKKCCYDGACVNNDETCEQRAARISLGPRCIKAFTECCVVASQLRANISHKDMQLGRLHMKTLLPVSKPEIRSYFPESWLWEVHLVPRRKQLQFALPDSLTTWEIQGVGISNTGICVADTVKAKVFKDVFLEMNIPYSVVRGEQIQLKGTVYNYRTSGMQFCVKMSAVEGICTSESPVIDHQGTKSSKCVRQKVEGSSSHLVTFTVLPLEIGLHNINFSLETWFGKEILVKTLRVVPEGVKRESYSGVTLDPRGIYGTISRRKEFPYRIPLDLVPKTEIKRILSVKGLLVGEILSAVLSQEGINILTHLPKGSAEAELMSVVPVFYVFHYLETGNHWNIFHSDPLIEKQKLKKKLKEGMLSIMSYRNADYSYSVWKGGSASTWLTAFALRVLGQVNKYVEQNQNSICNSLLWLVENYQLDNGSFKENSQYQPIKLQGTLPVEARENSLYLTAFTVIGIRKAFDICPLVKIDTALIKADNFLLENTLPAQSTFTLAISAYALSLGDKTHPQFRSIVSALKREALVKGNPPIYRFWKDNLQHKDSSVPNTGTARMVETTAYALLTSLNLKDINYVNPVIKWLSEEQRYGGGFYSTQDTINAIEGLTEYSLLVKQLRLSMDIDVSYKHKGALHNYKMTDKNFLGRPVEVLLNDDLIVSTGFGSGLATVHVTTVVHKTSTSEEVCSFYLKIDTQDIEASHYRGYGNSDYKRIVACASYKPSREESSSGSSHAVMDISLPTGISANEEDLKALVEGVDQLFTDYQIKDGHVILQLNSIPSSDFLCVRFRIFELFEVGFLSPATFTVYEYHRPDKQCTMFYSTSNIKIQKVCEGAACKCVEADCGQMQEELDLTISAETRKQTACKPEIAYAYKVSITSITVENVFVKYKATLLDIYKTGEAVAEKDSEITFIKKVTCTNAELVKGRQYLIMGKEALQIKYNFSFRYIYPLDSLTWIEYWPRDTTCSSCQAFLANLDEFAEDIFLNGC

B1: anti-human C5 mAb 11C5 (antibody, V domains shown)
VH: EVQLVESGGGLVKPGGSLKLSCAASGFTFTTYAMSWVRQTPEKRLEWVATISAGGTYTYYSDNVKGRFTISRDNAKNNLYLQMSHLKSEDTAMFYCARDPDYYGRSPFAYWGQGTLVTVSA
VL: EIVLTQSPATLSVTPGESVSLSCRASQSISNNLQWYQQKSHESPRLLIKYASQSISGIPSRFSGSGSGTDFTLSINSVETEDFGMYFCQQSNSWPLTFGGGTKVELKR
In the case of B1, the Kd (commonly the free concentration of one partner at which half of the binding sites on the other are occupied at equilibrium, for simple one-to-one binding) in experiment [1] came to 12.5 nM. That is a double-digit nanomolar value.

B2: anti-human C5 mAb 11D9 (antibody, V domains shown)
VH: EVQLQQSGPEVVKPGASVKISCKASGYTFTDFYMNWVKQSHGKSLEWIGYINPNNGDTSYNQKFKGKATSTVDRSSNTAYMELRSLTSEDSAVYYCARLIFYGNWYFDVWGTGTTVTVSS
VL: EIVLTQSPPTMAASPGEKITITCSASSSISSNYVHWYQQKPGFSPKLLIYRTSNLASGVPVRFSGSGSGTSYSLTIGTMEAEDVATYYCQQGTSIPWTFGGGTKVEINR
Turning to B2, the Kd in experiment [2] is 2.2 nM.

B3: anti-human C5 mAb 8E1 (antibody, V domains shown)
VH: QVQLKESGPGLVAPSQSLSITCTVSGFPLNNYGIHWVRQPPGKGLEWLAVIWSDGRTTYNSALNSRLSISKDNSKSQVFFKMNSLQTDDTAMYYCARHDGRGDYSMDYWGQGTSVTVSS
VL: ELVMTQSPASLVVSLGQRATISCRASKGVSTSVYSYMHWYQQKPGQPPKLLIYLASNLESGVPARFSGSGSGTDFSLNIHPVEEEDAATYYCQQSGELPLTFGAGTKLELKR
For B3, binding in experiment [3] was put at a Kd of 0.427 nM.

B4: anti-human C5 mAb 9G6 (antibody, V domains shown)
VH: QIQLVQSGPELKKPGETVKISCKASGYTFTEYPMHWVKQAPGKSFKWMGILYTDTGEPTYAEEFRGRFAFSLETSASTAYLQINNLKNEDTATYFCVHSGYVGYWGQGTTLTVSS
VL: DIQMTQSPASLSASVGETVTFTCRASEIIYSYLVWYQQKQGKSPQLLVSNAKTLAEGVPSRFSGSGSGTQFSLKINSLQPEDFGSYYCQHYYGNPPTFGGGTKLEIKR
With B4, the Kd in experiment [4] is 2.2 nM.

B5: anti-human C5 mAb 2G1 (antibody, V domains shown)
VH: EVQLQQSGPELVKPGASVKISCKASGYTITDYNLDWVKQSHGKSLEWIGDISPNYGYTIYNQKFKDKATLTVDRSSSTAYMELRSLTSEDTAVYYCARRDIRYSGNSYKWYFDVWGTGTTVTVSS
VL: DVQITQSPSYLAASPGETITINCRTSKSISKYLAWYQEKPGKTNKLLIYSGSTLQSGIPSRFRGSGSGTDFTLTISSLEPEDFAMYYCQQHNEYPYTFGGGTKLEIK
Regarding B5, the Kd in experiment [5] amounted to 0.845 nM.
